Measurements taken from patent US20230131339A1, “EPI-X4 BASED PEPTIDES AND DERIVATIVES THEREOF” (Universitaet Ulm, priority 2020, published 2023).
Values joined by “and” are separate entries in the source; they are usually repeats but may differ in a detail not shown here. Equal entries are not always repeated. Where a SMILES comes first, the peptide text is derived from it. Primed or numbered codes have the meaning given here. Where no end group is shown, it is not given here. Side-chain parts run from the residue outwards. [ ]: non-standard residue; d: D form. The star is where a group is joined. Glu″ = glutamate linker (Glu-Pal); Palmitoyl = CCCCCCCCCCCCCCCC(=O)*; Ole = not defined here

B1: JM#13 (peptide)
peptide: ILRWSRKMPCVS
B2: JM#17 (peptide)
peptide: IMRWSRKMPCVS
B3: JM#20 (peptide)
peptide: ILRWSRKMPCMS
B4: JM#22 (peptide)
peptide: ILRWSRKFPCVS
B5: JM#19 (peptide)
peptide: ILRWSRKMPCFS
B6: SC024 (peptide)
peptide: ILRWSRKLPCVS
modifications: also: coupled to PEG 20 kDa, site not given here
B7: SC029 (peptide)
peptide: ILRWSRKLPCVS
modifications: also: peptide copies coupled to the two different ends of PEG 20 kDa
B8: SC033 (peptide)
peptide: ILRWSRKLPCVS
modifications: also: PEG-coupled, average 5 kDa
B9: JM#18 (peptide)
peptide: ILRWSRKMPCLS
B10: JM#192 (peptide)
peptide: ILRWSRK-NH2
modifications: not fully specified (residue 7)
B11: JM#194 (peptide)
peptide: [dL]MRWSRK-NH2
modifications: not fully specified (residue 7)
B12: JM#255 (peptide)
peptide: ILRWSRK-NH2
modifications: not fully specified (residue 7)
B13: JM#172 (peptide)
peptide: ILRWSRK(Palmitoyl)L-NH2
modifications: N-terminus assumed
SMILES: CCCCCCCCCCCCCCCC(=O)NCCCC[C@H](NC(=O)[C@H](CCCNC(=N)N)NC(=O)[C@H](CO)NC(=O)[C@H](Cc1c[nH]c2ccccc12)NC(=O)[C@H](CCCNC(=N)N)NC(=O)[C@H](CC(C)C)NC(=O)[C@@H](N)[C@@H](C)CC)C(=O)N[C@@H](CC(C)C)C(N)=O
B14: JM#180 (peptide)
peptide: [dL]MRWSRK(Palmitoyl)-NH2
modifications: N-terminus assumed
SMILES: CCCCCCCCCCCCCCCC(=O)NCCCC[C@H](NC(=O)[C@H](CCCNC(=N)N)NC(=O)[C@H](CO)NC(=O)[C@H](Cc1c[nH]c2ccccc12)NC(=O)[C@H](CCCNC(=N)N)NC(=O)[C@H](CCSC)NC(=O)[C@H](N)CC(C)C)C(N)=O
B15: JM#183 (peptide)
peptide: ILRWSRK(Ole)LPCVS
modifications: reading uncertain
B16: JM#213 (peptide)
peptide: ILRWSRKLPCVS
modifications: not fully specified (residue 7)
B17: JM#235 (peptide)
peptide: [dL]LRWSRK-NH2
modifications: not fully specified (residue 7)
B18: JM#238 (peptide)
peptide: [dI]LRWSRK-NH2
modifications: not fully specified (residue 7)
B19: JM#257 (peptide)
peptide: [dL]LRWSRK-NH2
modifications: not fully specified (residue 7)

These molecules were tested on CXCR4-tropic X4-HIV-1 (NL4-3) (assay: not given). Conditions: not given.
Assay type: cell-based

Row | Molecule | anti-HIV-1 activity (in words)
1 | d-MLRWSRKK(Glu-Pal)-NH2 ([dM]LRWSRKK([Glu″-Palmitoyl])-NH2) [JM #197] | strongly increased anti-HIV-1 activity
2 | d-MLRWSRK(Glu-Pal)-NH2 ([dM]LRWSRK([Glu″-Palmitoyl])-NH2) [JM #196] | strongly increased anti-HIV-1 activity
3 | d-LMRWSRKK(Glu-Pal)-NH2 ([dL]MRWSRKK([Glu″-Palmitoyl])-NH2) [JM #195] | strongly increased anti-HIV-1 activity

Same assay, conditions: CXCR4-tropic X4- (NL4-3)

Row | Molecule | IC50
4 | CC[C@H](C)[C@H](N)C(=O)N[C@@H](CC(C)C)C(=O)N[C@@H](CCCNC(=N)N)C(=O)N[C@@H](Cc1c[nH]c2ccccc12)C(=O)N[C@@H](CO)C(=O)N[C@@H](CCCNC(=N)N)C(=O)N[C@@H](CCCCN)C(=O)N[C@@H](Cc1ccccc1)C(=O)N1CCC[C@H]1C(=O)N[C@@H](CS)C(=O)N[C@H](C(=O)N[C@@H](CO)C(=O)O)C(C)C [JM #22] (H-ILRWSRKFPCVS-OH; C-terminus assumed) | < 5 nM
5 | CC[C@H](C)[C@H](N)C(=O)N[C@@H](CCSC)C(=O)N[C@@H](CCCNC(=N)N)C(=O)N[C@@H](Cc1c[nH]c2ccccc12)C(=O)N[C@@H](CO)C(=O)N[C@@H](CCCNC(=N)N)C(=O)N[C@@H](CCCCN)C(=O)N[C@@H](CCSC)C(=O)N1CCC[C@H]1C(=O)N[C@@H](CS)C(=O)N[C@H](C(=O)N[C@@H](CO)C(=O)O)C(C)C [JM #17] (H-IMRWSRKMPCVS-OH; C-terminus assumed) | < 5 nM
6 | CC[C@H](C)[C@H](N)C(=O)N[C@@H](CC(C)C)C(=O)N[C@@H](CCCNC(=N)N)C(=O)N[C@@H](Cc1c[nH]c2ccccc12)C(=O)N[C@@H](CO)C(=O)N[C@@H](CCCNC(=N)N)C(=O)N[C@@H](CCCCN)C(=O)N[C@@H](CCSC)C(=O)N1CCC[C@H]1C(=O)N[C@@H](CS)C(=O)N[C@H](C(=O)N[C@@H](CO)C(=O)O)C(C)C [JM #13] (H-ILRWSRKMPCVS-OH; C-terminus assumed) | < 5 nM
7 | CC[C@H](C)[C@H](N)C(=O)N[C@@H](CC(C)C)C(=O)N[C@@H](CCCNC(=N)N)C(=O)N[C@@H](Cc1c[nH]c2ccccc12)C(=O)N[C@@H](CO)C(=O)N[C@@H](CCCNC(=N)N)C(=O)N[C@@H](CCCCN)C(=O)N[C@@H](CCSC)C(=O)N1CCC[C@H]1C(=O)N[C@@H](CS)C(=O)N[C@@H](Cc1ccccc1)C(=O)N[C@@H](CO)C(=O)O [JM #19] (H-ILRWSRKMPCFS-OH; C-terminus assumed) | 5 to 10 nM
8 | CC[C@H](C)[C@H](N)C(=O)N[C@@H](CC(C)C)C(=O)N[C@@H](CCCNC(=N)N)C(=O)N[C@@H](Cc1c[nH]c2ccccc12)C(=O)N[C@@H](CO)C(=O)N[C@@H](CCCNC(=N)N)C(=O)N[C@@H](CCCCN)C(=O)N[C@@H](CCSC)C(=O)N1CCC[C@H]1C(=O)N[C@@H](CS)C(=O)N[C@@H](CCSC)C(=O)N[C@@H](CO)C(=O)O [JM #20] (H-ILRWSRKMPCMS-OH; C-terminus assumed) | < 5 nM

These molecules were tested against CXC chemokine receptor type 4 (CXCR4) (human, UniProt P61073 1-352) (assay: cell-based or functional assay). Conditions: not given.
CXC chemokine receptor type 4 (CXCR4), sequence (P61073 whole entry): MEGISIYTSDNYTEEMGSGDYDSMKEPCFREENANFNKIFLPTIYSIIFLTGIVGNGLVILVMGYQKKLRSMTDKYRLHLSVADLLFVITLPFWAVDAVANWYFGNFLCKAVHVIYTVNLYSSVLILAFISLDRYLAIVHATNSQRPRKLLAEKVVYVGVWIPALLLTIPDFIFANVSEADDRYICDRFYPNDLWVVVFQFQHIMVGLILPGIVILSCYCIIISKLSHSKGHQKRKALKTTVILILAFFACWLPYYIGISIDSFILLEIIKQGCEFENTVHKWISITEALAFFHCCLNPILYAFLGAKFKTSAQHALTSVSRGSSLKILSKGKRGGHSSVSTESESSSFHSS

Row | Molecule | IC50, X4-HIV-1 inhibition assay | IC50, HIV inhibition assay | IC50, HIV-1 inhibition assay
9 | B1 | < 5 nM |  | 
10 | B2 | < 5 nM |  | 
11 | B3 | < 5 nM |  | 
12 | B4 | < 5 nM |  | 
13 | B5 |  | 5 to 10 nM | 
14 | B6 |  |  | 118 nM
15 | B7 |  |  | 98 nM
16 | B8 |  |  | 716 nM
17 | B9 | < 5 nM |  | 
18 | B10 | < 5 nM and 2 nM |  | 
19 | B11 | < 5 nM and 2 nM |  | 
20 | B12 | < 5 nM |  | 
21 | B13 |  | 5 to 10 nM | 
22 | B14 |  | 5 to 10 nM | 
23 | B15 |  | 5 to 10 nM | 
24 | B16 |  | 5 to 10 nM | 
25 | B17 |  | 5 to 10 nM | 
26 | B18 |  | 5 to 10 nM | 
27 | B19 |  | 5 to 10 nM | 
